Results reported in article PMC9975939.
Blank lines part the entries; values can stand above or below the substance they belong to.

Tests used:
[1] = biological target: His-Flag-NDP52 C18, 153, 163, 321S (human) (UniProt Q13137); assay: native gel or EMSA; blue native PAGE of lysates (30 μg; 20 mM Bis-Tris pH 7.2, 40 mM NaCl, 10% glycerol, 0.5% NP-40) of HeLa PentaKO cells stably expressing NDP52 WT or Mut, immunoblot
[2] = biological target: untagged NDP52 C18, 153, 163, 321S mutant (human) (UniProt Q13137); assay: native gel or EMSA; blue native PAGE (4–16% NativePAGE gel, Coomassie G-250) of recombinant NDP52 WT and Mut, immunoblot
[3] = biological target: FIP200-GFP; assay: bead recruitment assay (confocal imaging of FIP200-GFP on beads); conditions: glutathione Sepharose beads coated with GST-4xUb, incubated with untagged NDP52 and FIP200-GFP; read off a plot

stoichiometry N [1]: 2
Substance: His-Flag-NDP52 C18, 153, 163, 321S (from UniProt Q13137 1-446) (natural protein)

stoichiometry N [2]: 2
Substance: untagged NDP52 C18, 153, 163, 321S mutant (from UniProt Q13137 1-446) (natural protein)

percent of parent [3]: 93%
Substance: untagged NDP52 wild type mutant C18S; C153S; C163S; C321S [human] / FIP200-GFP [not stated] chain 1 C18S, chain 1 C153S, chain 1 C163S, chain 1 C321S
